From PMC10479434 come the findings set out here.

For test [1], the target named is α-synuclein (wild type) (UniProt P37840).
Test [2] shares this target. The source holds these as a separate data set.

Bounds are passed on as bounds.

Chain of HtrA1ΔNTD (residues 156–480) (Q92743 156-480, stated change not applied): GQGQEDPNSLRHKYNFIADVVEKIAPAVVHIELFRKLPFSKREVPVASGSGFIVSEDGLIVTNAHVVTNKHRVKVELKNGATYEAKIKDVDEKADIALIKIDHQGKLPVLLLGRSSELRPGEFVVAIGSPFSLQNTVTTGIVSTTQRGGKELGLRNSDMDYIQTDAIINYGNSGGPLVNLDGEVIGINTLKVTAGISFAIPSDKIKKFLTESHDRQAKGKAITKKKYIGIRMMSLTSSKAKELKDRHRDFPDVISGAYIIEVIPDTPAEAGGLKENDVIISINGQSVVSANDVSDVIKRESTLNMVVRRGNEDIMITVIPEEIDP

Take “HtrA1ΔNTD (residues 156–480) (from UniProt Q92743 156-480) (domain or fragment)”: the ThT fluorescence of α-syn (25 μM) fibrillized with HtrA1 (5 μM) for 48h, relative to the signal without HtrA1 (% of the ThT signal without HtrA1) in test [1] is 20. In addition, in test [2], the sedimentation assay, α-syn (25 μM) with HtrA1 (5 μM), 24–72h: share of α-syn in the insoluble fraction (HtrA1 itself stays soluble with α-syn) (% of α-syn insoluble) is < 10.
